Measurements from patent publication US20110081339A1 (Amgen, published 2011).
Where two headings read alike, the source gives them in different places.

What was measured:
[1] = molecular target: T1, cynomolgus IL-17RA expressed on cells (cynomolgus); test: FACS; inhibition of biotin-huIL-17A binding; MFI
T1 construct: whole, on cells; CHO cell line over-expressing cynomolgus IL-17RA (FACS); also called cyno IL-17RA; CHO-cynoIL-17RA
Description: The anti-IL-17RA antibodies were characterized. […] Anti-IL-17RA non-clonal hybridomas were selected for sub-cloning based on their performance in the CHO-IL-17RA FACS assay and HFF bioassay.

[2] = molecular target: T1, cynomolgus IL-17RA expressed on cells; test: cell-based or functional assay
[3] = molecular target: T1, cynomolgus IL-17RA expressed on cells; test: FACS; inhibition of biotin-huIL-17A binding; MFI; remark: listed apart in the source
[4] = molecular target: Human IL-17RA full-length expressed on the surface of cells (human, UniProt Q96F46 33-866); test: cell-based or functional assay
[5] = molecular target: T1, cynomolgus IL-17RA expressed on cells; test: FACS; inhibition of biotin-huIL-17A binding; MFI; remark: listed apart in the source

Binder	MFI [1]	MFI [5]	further results
IL-17RA mAb (AMH13/AML13) (antibody, IgG2, V domains shown, From IgG2 XenoMouse mice; also called AM-13; AML13/AMH13) VH: QVQLVESGGGVVQPGRSLRLSCAASGFTFSSYGMQWVRQAPGKGLEWVAVIWYDGNKKYYADSVKGRFTISRDNSKNTLYLQMNSLRAEDTAVYYCARGRVRDYYYGMDVWGQGTTVTVSS VL: DIVMTQTPLSLSVTPGQPASIACKSSQSLLHSDGKTYLYWYLQKPGQPPQLLIYEVSTRFSGVPDRFSGSGSGTDFTLKISRVEAEDVGVFYCMQSIQLPLTFGGGTKVEIK	6	–	–
IL-17RA human mAb having the heavy and light chain variable sequences (AMH14/AML14) (antibody, IgG2, V domains shown, Fully human, from IgG2 XenoMouse mice; Only variable domains are tied to it in the description; also called AM-14; AML14/AMH14) VH: QVQLVQSGAEVKKPGASVKVSCKASGYTFTRYGISWVRQAPGQGLEWMGWISTYSGNTNYAQKLQGRVTMTTDTSTSTAYMELRSLRSDDTAVYYCARRQLYFDYWGQGTLVTVSS VL: EIVMTQSPATLSVSPGERATLSCRASQSVSSNLAWFQQKPGQAPRPLIYDASTRATGVPARFSGSGSGTDFTLTISSLQSEDFAVYYCQQYDNWPLTFGGGTKVEIK	–	–	IC50, cynomolgous IL-17A-induced IL-6 production from JTC-12 cells [2]: ~1.2 nM; MFI [3]: 10
IL-17RA mAb (AMH12/AML12) (antibody, IgG2, V domains shown, From IgG2 XenoMouse mice; also called AM-12; AML12/AMH12) VH: QVQLVQSGAEVKKPGASVKVSCKASGYTLTSYGISWVRQAPGQGLEWMGWISTYKGNTNYAQKLQGRVTMTTDTSTSTAYMELRSLRSDDTAVYYCARKQLVFDYWGQGTLVTVSS VL: EIVMTQSPATLSVSPGERATLSCRASQSISSSLAWYQQKPGQAPRLLIYGASTRATGIPARFSGSGSGTEFTLTISSLQSENFAVYYCQQYDNWPLTFGGGTKVEIK	6	–	–
IL-17RA mAb (AMH15/AML15) (antibody, V domains shown, also called AM-15; AML15/AMH15) VH: QVQLVESGGGVVQPGRSLRLSCAASGFTFSSYGMQWVRQAPGKGLEWVAVIWYDGNKKYYADSVKGRFTISRDNSKNTLYLQMNSLRAEDTAVYYCARGRVRDYYYGMDVWGQGTTVTVSS VL: EIVMTQSPATLSVSPGERVTLSCRASQSVSSNLAWFQQKPGQAPRPLIYDASTRAAGIPARFSGSGSGTDFTLTISSLQSEDFAVYYCQQYDNWPLTFGGGTKVEIK	–	–	MFI [3]: 6
AMH14/AML14 (hybridoma) (antibody, V domains shown) VH: QVQLVQSGAEVKKPGASVKVSCKASGYTFTRYGISWVRQAPGQGLEWMGWISTYSGNTNYAQKLQGRVTMTTDTSTSTAYMELRSLRSDDTAVYYCARRQLYFDYWGQGTLVTVSS VL: EIVMTQSPATLSVSPGERATLSCRASQSVSSNLAWFQQKPGQAPRPLIYDASTRATGVPARFSGSGSGTDFTLTISSLQSEDFAVYYCQQYDNWPLTFGGGTKVEIK	–	–	IC50 (read off the curve) (IL-17A-induced GRO-alpha production from HFF cells; blocked ligand m20) [4]: ~0.01 µg/mL
IL-17RA mAb (AMH17/AML17) (antibody, V domains shown, From IgG2 XenoMouse mice; also called AM-17; AML17/AMH17) VH: QVQLVQSGAEVKKPGAAVKVSCKATGYTLTSYGISWVRQAPGQGLEWMGWISAYSGNTKYAQKLQGRVTMTTDTSTSTAYMELRSLRSDDTAVYYCARKQLVFDYWGQGTLVTVSS VL: not shown	8	–	–
IL-17RA mAb (AMH16/AML16) (antibody, IgG2, V domains shown, From IgG2 XenoMouse mice; also called AM-16; AML16/AMH16) VH: QVQLVQSGAEVKKPGASVKVSCKASGYTFTSYGISWVRQAPGQGLEWMGWISAYNGNTKYAQKLQGRVTMTTDTSTSTVYMELRSLRSDDTAVYYCARKQLVFDYWGQGTLVTVSS VL: EIVMTQSPATLSVSPGERATLSCRASQSISTSLAWYQQKPGQAPRLLIYGTSTRATGIPARFSGSGSGTEFTLTISSLQSEDFAVYFCQQYDIWPLTFGGGTKVEIK	6	–	–
IL-17RA mAb (AMH21/AML21) (antibody, IgG2, V domains shown, From IgG2 XenoMouse mice; also called AM-21; AML21/AMH21) VH: EVQLVESGGGSVQPGGSLRLSCAASGFTFSSYSMNWVRQAPGKGLEWVSIISSRSSIIHYADSVKGRFTISRDNAKNSLYLQMNSLRDEDTAVYYCARPKVGGGMDVWGQGTTVTVSS VL: DIQMTQSPSSLSASVGDRVTITCRASQGISNYLAWYQQKPGKFPELLIYAASTLQSGVPSRFSGSGSGTDFTLTISSLQPEDVATYYCQKYNRAPFTFGPGTKVDIK	–	–	MFI [3]: 6

The next lines start with results.

MFI [1]	MFI [5]	Binder	further results
–	18	IL-17RA human mAb (AMH22/AML22) (antibody, IgG2, V domains shown, Fully human, from IgG2 XenoMouse mice; also called AM-22; AML22/AMH22) VH: QVQLVQSGAEVKKPGASVKVSCKASGYTFTRYGISWVRQAPGQGLEWMGWISAYSGNTNYAQKLQGRVTMTTDTSTSTAYMELRSLRSDDTAVYYCARRQLYFDYWGQGTLVTVSS VL: EIVMTQSPATLSVSPGERVTLSCRASQSVSSNLAWFQQKPGQAPRPLIYDASTRAAGIPARFSGSGSGTDFTLTISSLQSEDFAVYYCQQYDNWPLTFGGGTKVEIK	–
–	9	IL-17RA mAb (AMH11/AML11) (antibody, V domains shown, also called AM-11; AML11/AMH11) VH: QVQLVESGGGVVQPGRSLRLSCATSGITFSSYGMHWVRQAPGKGLEWVAVIWYDGSNKYYADSVKGRFTISRDNSKNTLYLQMNSLRAEDTAVYYCARDTKDYWGQGTLVTVSS VL: EIVMTQSPATLSVSPGERATLSCRASQSVSSNLAWYQQKPGQAPRLLIYGASTRAAGIPARFSGGGSGTAFTLTISNLQSEDFAVYYCQHYINWPKWTFGQGTKVDIK	–
–	11	IL-17RA mAb (AMH1/AML1) (antibody, V domains shown, also called AM-1; AML1/AMH1) VH: QVQLQESGPGLVKPSETLSLTCTVSGGSISNYYWNWIRQSPGKGLEWIGDIYYSGSTNYNPSLKSRVTISVDTSKNQFSLKLSSVTTADTAVYYCARDGELANYYGSGSYQFYYYYGMDVWGQGTTVTVSS VL: DILMTQSPSSLSASVGDRVTITCRASQGIRNDLGWYQQKPGKAPKRLIYAASSLQSGVPSRFSGSGSGTEFTLTISSLQPEDFATYYCLQHNSNPFTFGPGTKVDIK	–
–	9	IL-17RA mAb (AMH5/AML5) (antibody, V domains shown, also called AM-5; AML5/AMH5) VH: QVQLQESGPGLVKPSETLPLTCTVSGGSIRSYYWSWIRQPAGKGLEWIGRIYRSGNTIYNPSLKSRVTMSIDTSKNQFSLTLSSVTAADTAVYYCARENYSESSGLYYYYGMDVWGQGTTVTVSS VL: DIQMTQSPSSLSASVGDRVTITCRASQGIRNDLGWYQQKPGKAPKRLIYAASSFQSGVPSRFSGSGSGTGFTLTISSLQPEDFATYYCLQHNSYPPTFGQGTKVEIK	–
